Results taken from patent US20150158921A1.

Experiments:
Experiment in all cases: cell-based or functional assay
[1] = biological target: rat NMDA receptor NR1-2b/NR2C (rat), P35439
[2] = biological target: rat α2β2 nAChR (rat), P12389
[3] = biological target: rat α4β4 nAChR (rat), P09483
[4] = biological target: rat α2β4 nAChR (rat), P12389
[5] = biological target: rat NMDA receptor NR1-2b/NR2B (rat), P35439
[6] = biological target: rat NMDA receptor NR1-2b/NR2D (rat), P35439
[7] = biological target: rat α3β2 nAChR (rat), P04757
[8] = biological target: human α6/α3β2β3 nAChR (human), P17787
[9] = biological target: rat α6/α3β4 nAChR (rat), P12392
[10] = biological target: rat α7 nAChR (rat), Q05941
[11] = biological target: rat α6/α3β2β3 nAChR (rat), P12390
[12] = biological target: rat α3β4 nAChR (rat), P04757
[13] = biological target: rat α4β2 nAChR (rat), P09483
[14] = biological target: rat NMDA receptor NR1-2b/NR2A (rat), P35439
[15] = biological target: human α7 nAChR (human), P36544
human α7 nAChR (human), P36544, sequence (P36544 23-502): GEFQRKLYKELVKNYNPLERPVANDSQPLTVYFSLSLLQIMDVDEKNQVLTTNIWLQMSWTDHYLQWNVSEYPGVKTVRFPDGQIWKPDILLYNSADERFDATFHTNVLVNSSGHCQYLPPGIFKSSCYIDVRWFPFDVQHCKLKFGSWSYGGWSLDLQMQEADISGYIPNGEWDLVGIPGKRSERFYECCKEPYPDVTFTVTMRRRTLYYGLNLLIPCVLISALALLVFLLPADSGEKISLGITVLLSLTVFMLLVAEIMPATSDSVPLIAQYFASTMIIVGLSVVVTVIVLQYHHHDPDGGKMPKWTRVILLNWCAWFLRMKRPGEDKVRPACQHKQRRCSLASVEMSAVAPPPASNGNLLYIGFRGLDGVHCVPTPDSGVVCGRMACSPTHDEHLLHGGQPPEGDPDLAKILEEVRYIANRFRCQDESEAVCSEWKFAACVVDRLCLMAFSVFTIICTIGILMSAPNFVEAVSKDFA

rat α4β2 nAChR (rat), P09483, sequence (P09483 31-630, chain 1 of 2): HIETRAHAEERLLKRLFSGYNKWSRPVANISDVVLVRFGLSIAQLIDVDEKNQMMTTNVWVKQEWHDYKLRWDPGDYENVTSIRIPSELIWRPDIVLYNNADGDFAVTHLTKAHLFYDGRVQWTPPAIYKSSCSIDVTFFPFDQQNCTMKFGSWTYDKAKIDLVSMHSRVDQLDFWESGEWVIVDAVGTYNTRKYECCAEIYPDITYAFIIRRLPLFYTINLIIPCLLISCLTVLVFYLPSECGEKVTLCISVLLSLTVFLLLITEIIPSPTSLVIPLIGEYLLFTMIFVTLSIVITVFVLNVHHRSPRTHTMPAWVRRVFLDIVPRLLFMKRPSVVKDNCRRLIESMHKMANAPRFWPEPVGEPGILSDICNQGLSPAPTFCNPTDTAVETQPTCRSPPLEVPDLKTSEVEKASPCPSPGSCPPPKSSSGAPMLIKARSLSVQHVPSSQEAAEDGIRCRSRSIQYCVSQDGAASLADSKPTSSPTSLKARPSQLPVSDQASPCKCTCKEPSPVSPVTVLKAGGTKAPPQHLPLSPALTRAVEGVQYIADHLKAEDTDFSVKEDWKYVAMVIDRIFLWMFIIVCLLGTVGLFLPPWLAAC
rat α4β2 nAChR (rat), P09483, sequence (P12390 25-500, chain 2 of 2, further chain): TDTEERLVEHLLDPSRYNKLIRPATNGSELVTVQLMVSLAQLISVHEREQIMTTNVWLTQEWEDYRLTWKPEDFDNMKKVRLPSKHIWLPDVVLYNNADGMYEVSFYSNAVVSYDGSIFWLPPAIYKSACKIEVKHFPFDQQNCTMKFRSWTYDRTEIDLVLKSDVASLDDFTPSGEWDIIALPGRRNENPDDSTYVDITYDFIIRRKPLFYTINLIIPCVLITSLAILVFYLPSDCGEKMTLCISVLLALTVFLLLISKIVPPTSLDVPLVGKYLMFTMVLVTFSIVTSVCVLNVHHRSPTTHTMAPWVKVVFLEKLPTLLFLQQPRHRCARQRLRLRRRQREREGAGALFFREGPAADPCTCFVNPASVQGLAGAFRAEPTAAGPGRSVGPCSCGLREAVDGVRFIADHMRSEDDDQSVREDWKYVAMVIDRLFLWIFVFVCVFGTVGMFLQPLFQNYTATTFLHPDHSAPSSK
rat α4β4 nAChR (rat), P09483, sequence (P09483 31-630, chain 1 of 2): as the sequence (P09483 31-630, chain 1 of 2) above
rat α4β4 nAChR (rat), P09483, sequence (P12392 21-495, chain 2 of 2, further chain): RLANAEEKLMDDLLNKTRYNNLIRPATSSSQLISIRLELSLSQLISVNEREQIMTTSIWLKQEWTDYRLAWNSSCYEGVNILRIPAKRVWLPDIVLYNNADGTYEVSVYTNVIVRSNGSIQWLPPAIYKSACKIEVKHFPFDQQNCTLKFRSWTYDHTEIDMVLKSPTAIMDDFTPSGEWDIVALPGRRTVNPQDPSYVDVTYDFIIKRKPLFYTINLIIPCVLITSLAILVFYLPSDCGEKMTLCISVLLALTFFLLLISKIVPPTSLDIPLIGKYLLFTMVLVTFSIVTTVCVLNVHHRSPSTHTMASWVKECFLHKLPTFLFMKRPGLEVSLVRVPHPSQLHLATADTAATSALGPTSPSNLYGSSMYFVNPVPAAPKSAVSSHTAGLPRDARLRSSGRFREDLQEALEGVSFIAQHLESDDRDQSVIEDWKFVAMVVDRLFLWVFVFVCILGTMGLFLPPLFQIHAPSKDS
rat α7 nAChR (rat), Q05941, sequence (Q05941 23-502): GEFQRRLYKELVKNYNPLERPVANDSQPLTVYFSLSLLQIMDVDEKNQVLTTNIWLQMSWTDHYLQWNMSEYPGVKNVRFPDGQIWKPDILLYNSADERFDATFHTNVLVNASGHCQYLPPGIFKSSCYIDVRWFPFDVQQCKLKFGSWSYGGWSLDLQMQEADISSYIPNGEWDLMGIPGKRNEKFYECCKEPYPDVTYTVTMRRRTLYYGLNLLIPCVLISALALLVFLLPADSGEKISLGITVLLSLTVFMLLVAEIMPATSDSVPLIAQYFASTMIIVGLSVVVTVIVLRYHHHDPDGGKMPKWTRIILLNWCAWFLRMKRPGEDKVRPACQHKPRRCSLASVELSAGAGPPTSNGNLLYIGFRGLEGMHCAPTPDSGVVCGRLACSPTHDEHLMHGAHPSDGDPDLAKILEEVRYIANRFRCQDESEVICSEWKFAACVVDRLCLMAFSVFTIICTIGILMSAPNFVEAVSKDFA
human α6/α3β2β3 nAChR (human), P17787, sequence (P17787 26-502, chain 1 of 2): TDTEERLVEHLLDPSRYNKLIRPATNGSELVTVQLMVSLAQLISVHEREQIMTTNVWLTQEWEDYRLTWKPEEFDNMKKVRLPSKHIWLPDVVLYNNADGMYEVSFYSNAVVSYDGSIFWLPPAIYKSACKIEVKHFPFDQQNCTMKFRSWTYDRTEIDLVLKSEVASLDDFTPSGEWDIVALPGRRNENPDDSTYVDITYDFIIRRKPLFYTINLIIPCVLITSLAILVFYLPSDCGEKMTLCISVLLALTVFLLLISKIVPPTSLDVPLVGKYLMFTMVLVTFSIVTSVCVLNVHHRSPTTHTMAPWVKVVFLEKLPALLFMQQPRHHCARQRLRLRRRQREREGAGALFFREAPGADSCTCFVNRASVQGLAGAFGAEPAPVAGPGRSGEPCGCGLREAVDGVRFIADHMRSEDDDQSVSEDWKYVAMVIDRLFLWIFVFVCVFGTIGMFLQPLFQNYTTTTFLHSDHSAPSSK
human α6/α3β2β3 nAChR (human), P17787, sequence (Q05901 22-458, chain 2 of 2, further chain): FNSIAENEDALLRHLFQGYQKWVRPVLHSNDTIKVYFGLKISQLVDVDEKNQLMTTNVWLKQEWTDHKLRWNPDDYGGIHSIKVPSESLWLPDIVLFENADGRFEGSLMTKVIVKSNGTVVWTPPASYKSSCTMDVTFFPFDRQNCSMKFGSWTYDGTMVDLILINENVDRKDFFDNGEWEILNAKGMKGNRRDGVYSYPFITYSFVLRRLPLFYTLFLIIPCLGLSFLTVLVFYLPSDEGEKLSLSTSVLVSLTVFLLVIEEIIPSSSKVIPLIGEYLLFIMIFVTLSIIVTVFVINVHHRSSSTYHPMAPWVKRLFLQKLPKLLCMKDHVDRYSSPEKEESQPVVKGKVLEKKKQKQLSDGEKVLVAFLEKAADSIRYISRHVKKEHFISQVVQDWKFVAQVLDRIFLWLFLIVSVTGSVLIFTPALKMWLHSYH
rat α3β4 nAChR (rat), P04757, sequence (P04757 26-499, chain 1 of 2): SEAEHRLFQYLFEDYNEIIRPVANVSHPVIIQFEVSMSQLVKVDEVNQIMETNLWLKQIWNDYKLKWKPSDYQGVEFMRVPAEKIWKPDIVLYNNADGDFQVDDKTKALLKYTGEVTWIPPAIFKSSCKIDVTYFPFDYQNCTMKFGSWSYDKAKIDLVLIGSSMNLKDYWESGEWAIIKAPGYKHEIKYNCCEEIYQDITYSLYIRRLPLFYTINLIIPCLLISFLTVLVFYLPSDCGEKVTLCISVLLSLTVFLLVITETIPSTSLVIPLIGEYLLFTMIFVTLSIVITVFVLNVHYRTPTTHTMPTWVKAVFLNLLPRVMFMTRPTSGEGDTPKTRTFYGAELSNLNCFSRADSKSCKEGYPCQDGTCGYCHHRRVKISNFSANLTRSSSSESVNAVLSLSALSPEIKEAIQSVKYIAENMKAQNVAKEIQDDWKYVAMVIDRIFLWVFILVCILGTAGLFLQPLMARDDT
rat α3β4 nAChR (rat), P04757, sequence (P12392 21-495, chain 2 of 2, further chain): as the sequence (P12392 21-495, chain 2 of 2, further chain) above

TCRSSGRYCRSPYDRRRRYCRRITDACV (modifications not checked) [αO-conotoxin GeXIVA12 (GeXIVA mature peptide isomer with disulfide bonds I-II, III-IV)]
Half-blocking dose IC50, NMDA receptor current, oocyte voltage clamp [1]: 655 nM
Half-blocking dose IC50, ACh-gated current, oocyte voltage clamp [2]: 338 nM
Half-blocking dose IC50, ACh-gated current, oocyte voltage clamp [3]: 2390 nM
Half-blocking dose IC50, ACh-gated current, oocyte voltage clamp [4]: 2090 nM
Half-blocking dose IC50, NMDA receptor current, oocyte voltage clamp [5]: 4000 nM
Half-blocking dose IC50, NMDA receptor current, oocyte voltage clamp [6]: 5200 nM
Half-blocking dose IC50, ACh-gated current, oocyte voltage clamp [7]: 412 nM
Half-blocking dose IC50, ACh-gated current, oocyte voltage clamp [8]: 505 nM
Half-blocking dose IC50, ACh-gated current, oocyte voltage clamp [9]: 806 nM
Half-blocking dose IC50, ACh-gated current, oocyte voltage clamp [10]: 415 nM
Half-blocking dose IC50, ACh-gated current, oocyte voltage clamp [11]: 258 nM
Half-blocking dose IC50, ACh-gated current, oocyte voltage clamp [12]: 5400 nM
Half-blocking dose IC50, ACh-gated current, oocyte voltage clamp [13]: 979 nM
Half-blocking dose IC50, NMDA receptor current, oocyte voltage clamp [14]: 3700 nM
Half-blocking dose IC50, ACh-gated current, oocyte voltage clamp [15]: 555 nM
